Measured values as given in paper PMC3461054.

B1: KLP64DS (KLP64D stalk, untagged) (domain or fragment)
chain: PKKKREKTDAEKEELAKRKNEHQKEIEHAKTEQETLRNKLVSLEGKILVGGENLLEKAQTQELLLEQSIAELEQHEKSEEALKQTLQQKATERIDIEERYSTLQDASTGITKKIHRVMQMLMGVKSELADQQQEHQREKEGIYENIRSLSRELALCELVLNSYVP

Experiments:
[1] = molecular target: His-KLP64DS (6xHis-tagged KLP64D stalk) (Drosophila) (UniProt Q9VRK9); assay: SEC; affinity purified heterodimer on HiLoad 16/60 Superdex 75 pg in 20 mM Tris-Cl pH 7.5, 5 mM MgCl2, 500 mM NaCl, 2.5 mM DTT, 1 ml/min; fractions on SDS-PAGE, band intensities compared
[2] = molecular target: His-KLP68DS (6xHis-tagged KLP68D stalk) (Drosophila); assay: as above

| stoichiometry N [1] | stoichiometry N [2] | Molecule |
| --- | --- | --- |
| 1 | – | KLP68DS (KLP68D stalk, untagged) (domain or fragment) |
| – | 1 | B1 |
